# Assay: protease stability score; higher = more stable; yeast display proteolysis, trypsin and chymotrypsin;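 further: log10 excess protease needed over predicted unfolded state with 0 meaning unfolded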
row,Sequence,protease stability score
1,DEERAAHNALRALEAMLTGDEKKADELADKDVRVNVGDRVYDGDEKMQKFVRELRKRYDHFHFRTYSHDGDKVKANVILNVNGRNVEIIFYLHAHNGKLKSVRVEVRNPELLKNLTS,1.23
2,DEERADELVELLTNNNFQSLADNADPNASIEYGDKTIRGRDEANKFLQNIERRADHVEIKSLKTKGNKIDIDLVVHVNGQKLRFKVEIKLRNGKVTHIRIQATSERDQRKFLEVVG,1.06
3,DEERAKQLMEKAFKMIRNGNEEVVRKMLKPNGRYEYIDKKFEGEEAAKFVVQLVQKVGAEDKVKRKEVKGDTAKMDFDYHKGDKTVRTTAEVIYKGDKMEQARVELTDEVKKIVHQG,0.046
4,DEERAKQVADKVFKYAINGDEEKMQKQLDPNVEYKYADTEYEGEDAARAIVRLVKQVGMEVKTQRQEVKGNTMQADFRYHNGDKEVQTTARVEYEGDKVKKVEVKVTDEVKKEAHKG,-0.068
5,DEERAMKDAVDRMEKNVKNGNFDKMMNLADKDAKVVVGDDTYRGRDNNVKKNKEDKEEFDHAEVRFKEVEVENGRISIHADITLNVNGQDVTRRFNFELRNHNGTALIVRLTLK,0.188
6,DEERAQHLVDQIFRAFKRGDPEQFKKMFDPNARMHVGDQRYHGREDIIKFLQEIREQADTITLRKVTVHNGQADIIVDVQVDGRRVRIQILINYHNGKVKSLKIHYTDEELQKEIES,1.56
7,DEERDERVATKVAEAMATGDPEKVMEQAPPNAEMRIGDKHFTGEEHIKQALLEWKRDADHIQVDHVSVQNGRAHMDMQFTINGRKRRYTLRVEVHNGKAKTVSVREP,0.315
8,DEERDLDIAVEAAKNLLTGNEERFSKMAPPDVRIEYGDKTVHGREQANTAVKEFRDRVDHIEIKRIEKDGNKAHIEFIANVNGHRFTVTMVVDVSNGRVNQVDIRARNKEDQEKMKG,0.06
9,DEEREAKEWMELFEDQFRQGNEHEVNKLMDKDARIHVGEKHVSGRNQAKKELKEHMKRADHIHIQLHEVDSRPGRMILDFTINQQVNGRRSSDKVRARFSKRNGRWYQESETQG,0.104
10,DEEREEQARKLLRAEEQGDPDRAKQMMDPNARVQVGNKRVHGRSEIATQLEKRKRRARYEIKHVTIRARGNRVDVKINVQVVVNGRPHHFTYIMHLTFQGDKAKNATVRIDEDTLRQVDS,0.171
11,DEEREKEFATRIATALRTNDPKKMVKNFDENAKFDVGDNRIKGREELKEWVDELHKEFDHIEIHDVQAHNGRAKINLKLEHNGRDTVLDATVVVENGRAKSAKQDQS,-0.448
12,DEERELEELMQRLISLMKNGNPKEVAKLLDPNVRVQYGDKRLHGREQAIRRIESLRRHVDHVTMSIESLQVEGDKVSARIEAVYDVNGTQDQRTIELELRQVNGKLRFKHITFK,0.017
13,DEEREVKKRIKHIIRVLENGDEDRAEELADPNTTARVGDKRVHGMNNYMRELARKARRADHVEVTIKHMDLNGEKFDIRLHIVIHVDGRREKFDLRFVITRQGDKHVAVDVQVS,1.47
14,DEERKAEEMAKSIIKVWQSGDHHQQQRNADEDVRFEIGDKRINGDHQLEDWVKKIKEQYDHIEVRIKSVTRQGDKLVVIAQVVYNENGHRRQVTVRFVAVDHNGTIVLKRAIYR,0.406
15,DEERKEQLLEIYKAIDTGNPEKVKELADPNAHVQYGDKSVHGMDDAVRQLEKRRKEIRIHWDVKSVHVEGNKVDVVAENEEEHNGHPRSHTVRVNAEFQGDKMKNAHYQSDK,-0.202
16,DEERKKQAEHFMRVYQQGNEEELNKLMDPNVKANVGDKEWQGREKMAKDTREKLEHSKLQLHSVSVDAQGNNIRIDVSFVVNHNGEPRRNHQTIIIHIDNGRITRLEVKDTS,0.004
17,DEERKKRVEEALRQEQQGNEEDYSELMDENVKITIGDKTIRGSKEAVRHFKEKMTQMRIELRDYRIQVHGNKVSVDLKYVNDHDGQPRHQKATATMDMTNGRVQSREVDNKP,0.186
18,DEERLAKEVNDQYQHIMDTGDPDQARKLFDENARVDIGDKQYHGREEAVEAFQQRMNRVDHIDIKIDEVKVRNGEIDVKFEINQNSNGKNVHRNIRFTMRVNGDKYAIVDMHVQ,0.367
19,DEERLQKIIEKAFKVIQNGNKEEAQKLGKPNVEYHYLDKTLHGPKAVEHAVEHVKKVGAEVKQQEIEVHGGTAKAVFQYHVGDKTVQTTAEVTYEGDKMKKARVKISEEVKKMMHRG,-0.076
20,DEERMHQLEKLFRTNNFEEFAKQADKDVTAKVGNETYTGREDMEKFARRLREQVDSIHYDRVEVKGDKFKADAQFDFNGKRVRFTVEVEFHNGKLQHMRMQATTHELEETLAKLLS,1.41
21,DEERMHRLKKLFDTNDNEQMSKQASENARMQVGNKVFHGREDIEKFILEERRRADHITYKHVTEHGNKVQAHVVKVVNGRSIDVIFEVEIDNGRIKRMSIQARDSEDQNKAEKALS,0.345
22,DEERMLKVAETVIRAVRNGNADKAVKYIDEGGEATFGDTKLKGPEHIYEYVKKFKDQGIEVHYKEEHKEGDKVTVHTQAHLGDATADFEVHYQVKGDKLDRMEVRMDKEQLKKFRDS,-0.347
23,DEERNEKAAHEMLKVFQRGDPDQFRDLIDPNARANVGDKKYHGRENLTHMFKHFVHRADHLEMQHVKVSGETVEIHIRAKINGKTIDFTIRIIVDNGKAREINFDPDMLKRMRG,1.23
24,DEERNELAEHVVKAWHHNDPDRVQKLVDPNVRFEIGDKEVHGREEYARIQRTEKDQWDLQIEVKHITVHNGRVDVDFDWRIERDGRPRTNQQVVIFEVDNGKVKRVSFQERK,-0.279
25,DEERNERHAQDLMRALENNDEERLRQLLDKDAKLNVGDHEIHGSENIVKRLAEFLKRADHLRFERMTVRGDTVQISFEVEHDGERRKYEVHITVHNGHVQSITIQKQ,2.49

row,Sequence,protease stability score
1,DEERNKEMKEVLETNDFKDLANQADENAKAQIGDKEYHGREEVRDAMKSLQERIDSVEVRDIHVQGDKFSIEAVMDVDGDKVDVVIEMRVHNGNIKFVRINARNESVKEKVEQVVS,1.79
2,DEERQDQAEEFWKILQTGDPDKAREELRDDVHVHVGDKVIHGMEDVDRDIERVRKQIRVEFDVRHIDSQGERISVEANIMENENGKPETAQLTVIIDMHNGRVVRIVFEKRK,1.96
3,DEERQHRVAKSLVDILKDGNPRKMKELMDKDATVRVGDKNIRGRKNIATFWTDVRRRIDHVEIKHVDVRGDKIDMNINFDVNGRHVHYTINARVRNGKLTSMHLDPDNLEHLKE,0.591
4,DEERQKEALKVHKKGDFDKILDQADEDVQVVIGDKKYHGREEATTALKKILDSIDHLKFESITIQNGRVRVDAILEFNGQQNRVIIVVEVHNGKVKKVEIRVTDPSQEDKLKKRVD,-0.203
5,DEERQQKVADDLATIMTNGNPDQMLELADKDVKAKYGDTEIHGREKVREYWKTIRDQADHIHIDTFKAENGQVDIQAHAKFNGKDYKFNLRIEFDNGRIKSIVVQEQ,0.278
6,DEERRDLAHRIFEAWKRNDPDTLRNLIDPNAKMVVGEDVLRGDEQIVKHVQDVHNRINMKIDIKSVRVEGDKVIVHAEVTANVNGRPVRIEVTFVIKNHNGKVKKIVIDVDPRDQRKMDS,-0.13
7,DEERRKNLAREYNKALTSGDENKVRRLADENVRIEIGDHVVSGRENLSKLVRDDQERVDRFRVQDVHVEGDKIQFDIQVEINGKTINITIEMQLHNGRIKKIKFDPRAVEQLKG,0.612
8,DEERSAHKFLKDMEKLMRTGDFQEVAKLFDKHAKVEVGDKRVHGREQIIRTNQQWEKRVDSVDLKIQHVSVKGEDVDVHYNMVLRYNGRNDNRVYRFVATVHGDKVRITHMELE,0.348
9,DEERSNLVESVFRALEHNDEKRLNELFDPNVNVQIGDDKIRGREELVKFMRTLKRQMRIRYRTMDLHVQGDKVVVRATFEVNVNGTPHNVTMEFHAEVHNGKFKHARIKIPEEKLKTMQS,1.57
10,DEERVERLARTAFKAAVNGDEDKLRKMLKPDVKYKYIDEEREGEDVAKFVVKLMKKIGAEVRLKRLEVRGDTVKADFDYKQGDKTVRTKAEVKYKGDKVDEARVELTDEVKKVLTRG,0.125
11,DEERVHQAVRIIKHNDPDKLRKLADPNAKFQVGDREIHGMEEYADIVAQIMEKADKITFTDIQVHNGRLTIEVVINVNGRNIQFQIFLEFHNGKLKHAHIQATSEEVQRQLNSLMG,0.674
12,DEERVKDLVKKIFKDIRNGDEERVRKKGKPDVKYEYADKTFEGEDAVRFIVEILKKVGAEDKTQNETVHGDKAQANFQYDKGDQTAQTTAQVEYKGDKVDKMRVKISEEVKKVVEQG,-0.116
13,DEERVKQLAEKAFKAIQNNDQEKLEKMGKPNVQYEYVDKKYEGPEVVKVVIKVVQKIGAKLETQEQEVKGDTARATFQYKNGDKTMQTTAEVRYKGDKMEEFRMELSDEVKKVVHQG,-0.207
14,DEERVKQLAEKVFKYVIKGDKDEVRKQGKPDVKYKYIDKEYEGPDALEKAVKLVKRLGMKAETKELKVKGNTVRAKFEYRKGDQTMKTEVEVHYEGDVVKEAKVKISDEVKKFVHQG,0.309
15,DEERVKQVQKKAFEAVMKGNDDEMRKIGKPNVRYEYIDEKNEGQEAVDVVIQLVKKVGAEAKVRRTEVKGDTVRAIFVYNDGDQTVQTKVEVKYEGDKVKEARVELTDEVQKVLHKG,-0.027
16,DEERVNDIAHKIAQNLRTNDEEQLVRMMDENAKVTVGEHRIDGREQIRTMWHKIKQHVDHVEVKHVEARGDRIRIIIVLNHNGRQRTIVMYVSIHNGHIKVLKIESQ,1.51
17,DEERVQQMLEQAFKAIQNGNEEQMQKLGKPNVEYKYVDHEYEGPDAARVMVQLVKRVGAEVKQQKVEVKGNTATAVFQYHDGDQTVETTAEVEYEGDKMKKARVELTDEVKKVVHKG,-0.117
18,DEERVRKVVEKLVDAVTRGDKDDIKKMLKKHVEFKLVDQEYKGVDQAVKVVKELHDYGMEVHVKEVRVKGDTAHATTVWKKGNTEAHVKVEYHVRDDKVEKVKIQWTEEAQKALKHG,0.283
19,DEERVRQIADKMFKAIISGNSKDVQQVVKPNIQYEYGDEKYQGPKVVDQLVKVVKKIGAEVREREKTVHGDTMTAVFQYHKGDTTVQTEAEVKYEGDKAKRLRVKLSEEAQKVIKQG,-0.114
20,DEERYKQLMEKAFKMIKQGNEEEARKLLKPDVEYHYADKTFRGEEAAQFIVKVVQKLGAEDHNQRQEVNGDTMKADFRYTQGDQTVQTKAEVIYKGDKATEARVEMSDEVKKVLDQG,-0.052
21,DEERYKRLFEKVFKVVQNGNKDELKKLLAPNVEYNYVDKTYEGEEAAKAVVQLVKKVGAKAKQQKVEVKGDTATAHFQYENGDQRVETQAELHYEGDKVKKVQVKLTDEVKKVVHQG,0.356
22,DEESDKKFLEKIRKLFEDGDPDQFRKMFPPDATAVIGDKSVHGNQVEQAVNTFEKNRADHVRIDSFEVSNGRVDIDVVVNHNGEERRIKIVFIARNGRLEHMRFVST,0.215
23,DEESKKQIDNWLKAVQQGDPDQLVKNVDKDVTVEYGDKSIHGRESLMKTLEDKKKQWRLEFKSVDVDVHGDKARLDVDVVLQINGQPFRHTRTIHVHLHNGRVKHMRFRFDEQQQRDMDR,1.12
24,DEESLAKEFIKHVNDNADTGNPDDMAELFDPNARIEVGDKKYDGHKDITKLNEELNREADHIKYTINSVKRDGDFVRLDIEVRMDVNGKDVNHRYRANVAVTNGRLVVRSLTSS,0.891
25,DEESLDHLRKVLEKNDPDQLTELMDPDATAVIGNTEVHGREKVVTIMRRIYERADSIHIDRFSHQGDRLVADMQVNINGKKMRYEYVIRVHNGRIKYVKFHVTSEDVERDLTRAVS,1.67
